In patent US20230250154A1 (CYTONICS, published 2023):

T1: ADAMTS5 (human, UniProt Q9UNA0 262-622, limits assumed)
T1 sequence (looked up): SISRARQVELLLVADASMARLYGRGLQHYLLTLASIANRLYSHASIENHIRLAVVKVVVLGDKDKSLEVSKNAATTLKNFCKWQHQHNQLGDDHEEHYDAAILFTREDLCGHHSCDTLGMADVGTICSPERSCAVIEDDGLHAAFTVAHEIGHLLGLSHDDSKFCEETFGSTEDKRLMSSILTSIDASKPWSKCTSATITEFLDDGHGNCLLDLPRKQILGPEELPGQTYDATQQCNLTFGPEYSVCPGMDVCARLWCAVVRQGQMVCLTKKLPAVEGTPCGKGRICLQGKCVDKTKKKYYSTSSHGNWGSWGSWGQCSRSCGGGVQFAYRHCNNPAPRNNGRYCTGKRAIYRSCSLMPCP

T2: ADAMTS4 (human, UniProt O75173 213-685, limits assumed)
T2 sequence (looked up): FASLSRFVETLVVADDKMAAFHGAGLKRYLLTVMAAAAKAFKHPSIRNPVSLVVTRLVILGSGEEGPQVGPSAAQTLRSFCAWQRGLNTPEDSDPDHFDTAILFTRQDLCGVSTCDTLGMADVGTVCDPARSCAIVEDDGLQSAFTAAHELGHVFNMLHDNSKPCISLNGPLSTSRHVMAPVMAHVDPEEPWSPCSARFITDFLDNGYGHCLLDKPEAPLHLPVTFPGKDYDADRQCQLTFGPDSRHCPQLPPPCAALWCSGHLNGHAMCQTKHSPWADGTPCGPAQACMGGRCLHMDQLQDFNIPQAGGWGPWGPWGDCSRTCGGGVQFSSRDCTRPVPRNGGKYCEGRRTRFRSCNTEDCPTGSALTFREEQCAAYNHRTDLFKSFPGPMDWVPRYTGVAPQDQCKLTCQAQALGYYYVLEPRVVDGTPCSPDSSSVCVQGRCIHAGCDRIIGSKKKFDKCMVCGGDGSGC

B1: Variant A2M, bait region SEQ ID NO 101 (other)
chain: SVSGKPQYMVLVPSLLHTETTEKGCVLLSYLNETVTVSASLESVRGNRSLFTDLEAENDVLHCVAFAVPKSSSNEEVMFLTVQVKGPTQEFKKRTTVMVKNEDSLVFVQTDKSIYKPGQTVKFRVVSMDENFHPLNELIPLVYIQDPKGNRIAQWQSFQLEGGLKQFSFPLSSEPFQGSYKVVVQKKSGGRTEHPFTVEEFVLPKFEVQVTVPKIITILEEEMNVSVCGLYTYGKPVPGHVTVSICRKYSDASDCHGEDSQAFCEKFSGQLNSHGCFYQQVKTKVFQLKRKEYEMKLHTEAQIQEEGTVVELTGRQSSEITRTITKLSFVKVDSHFRQGIPFFGQVRLVDGKGVPIPNKVIFIRGNEANYYSNATTDEHGLVQFSINTTNVMGTSLTVRVNYKDRSPCYGYQWVSEEHEEAHHTAYLVFSPSKSFVHLEPMSHELPCGHTQTVQAHYILNGGTLLGLKKLSFYYLIMAKGGIVRTGTHGLLVKQEDMKGHFSISIPVKSDIAPVARLLIYAVLPTGDVIGDSAKYDVENCLANKVDLSFSPSQSLPASHAHLRVTAAPQSVCALRAVDQSVLLMKPDAELSASSVYNLLPEKDLTGFPGPLNDQDDEDCINRHNVYINGITYTPVSSTNEKDMYSFLEDMGLKAFTNSKIRKPKMCPQLEQYEMHGPEGLRVGEEEGGGFYESDVMGRGHARLVHVEEPHTKLRKYFPETWIWDLVVVNSAGVAEVGVTVPDTITEWKAGAFCLSEDAGLGISSTASLRAFQPFFVELTMPYSVIRGEAFTLKATVLNYLPKCIRVSVQLEASPAFLAVPVEKEQAPHCICANGRQTVSWAVTPKSLGNVNFTVSAEALESQELCGTEVPSVPEHGRKDTVIKPLLVEPEGLEKETTFNSLLCPSGGEVSEELSLKLPPNVVEESARASVSVLGDILGSAMQNTQNLLQMPYGCGEQNMVLFAPNIYVLDYLNETQQLTPEIKSKAIGYLNTGYQRQLNYKHYDGSYSTFGERYGRNQGNTWLTAFVLKTFAQARAYIFIDEAHITQALIWLSQRQKDNGCFRSSGSLLNNAIKGGVEDEVTLSAYITIALLEIPLTVTHPVVRNALFCLESAWKTAQEGDHGSHVYTKALLAYAFALAGNQDKRKEVLKSLNEEAVKKDNSVHWERPQKPKAPVGHFYEPQAPSAEVEMTSYVLLAYLTAQPAPTSEDLTSATNIVKWITKQQNAQGGFSSTQDTVVALHALSKYGAATFTRTGKAAQVTIQSSGTFSSKFQVDNNNRLLLQQVSLPELPGEYSMKVTGEGCVYLQTSLKYNILPEKEEFPFALGVQTLPQTCDEPKAHTSFQISLSVSYTGSRSASNMAIVDVKMVSGFIPLKPTVKMLERSNHVSRTEVSSNHVLIYLDKVSNQTLSLFFTVLQDVPVRDLKPAIVKVYDYYETDEFAIAEYNAPCSKDLGNADYKDDDDKGASHHHHHH
B2: Variant A2M, bait region SEQ ID NO 99 (other)
chain: SVSGKPQYMVLVPSLLHTETTEKGCVLLSYLNETVTVSASLESVRGNRSLFTDLEAENDVLHCVAFAVPKSSSNEEVMFLTVQVKGPTQEFKKRTTVMVKNEDSLVFVQTDKSIYKPGQTVKFRVVSMDENFHPLNELIPLVYIQDPKGNRIAQWQSFQLEGGLKQFSFPLSSEPFQGSYKVVVQKKSGGRTEHPFTVEEFVLPKFEVQVTVPKIITILEEEMNVSVCGLYTYGKPVPGHVTVSICRKYSDASDCHGEDSQAFCEKFSGQLNSHGCFYQQVKTKVFQLKRKEYEMKLHTEAQIQEEGTVVELTGRQSSEITRTITKLSFVKVDSHFRQGIPFFGQVRLVDGKGVPIPNKVIFIRGNEANYYSNATTDEHGLVQFSINTTNVMGTSLTVRVNYKDRSPCYGYQWVSEEHEEAHHTAYLVFSPSKSFVHLEPMSHELPCGHTQTVQAHYILNGGTLLGLKKLSFYYLIMAKGGIVRTGTHGLLVKQEDMKGHFSISIPVKSDIAPVARLLIYAVLPTGDVIGDSAKYDVENCLANKVDLSFSPSQSLPASHAHLRVTAAPQSVCALRAVDQSVLLMKPDAELSASSVYNLLPEKDLTGFPGPLNDQDDEDCINRHNVYINGITYTPVSSTNEKDMYSFLEDMGLKAFTNSKIRKPKMCPQLEQYEMHGPEGLRVGGPPGLAPGFYESDVMGRGHARLVHVEEPHTKLLRKYFPETWIWDLVVVNSAGVAEVGVTVPDTITEWKAGAFCLSEDAGLGISSTASLRAFQPFFVELTMPYSVIRGEAFTLKATVLNYLPKCIRVSVQLEASPAFLAVPVEKEQAPHCICANGRQTVSWAVTPKSLGNVNFTVSAEALESQELCGTEVPSVPEHGRKDTVIKPLLVEPEGLEKETTFNSLLCPSGGEVSEELSLKLPPNVVEESARASVSVLGDILGSAMQNTQNLLQMPYGCGEQNMVLFAPNIYVLDYLNETQQLTPEIKSKAIGYLNTGYQRQLNYKHYDGSYSTFGERYGRNQGNTWLTAFVLKTFAQARAYIFIDEAHITQALIWLSQRQKDNGCFRSSGSLLNNAIKGGVEDEVTLSAYITIALLEIPLTVTHPVVRNALFCLESAWKTAQEGDHGSHVYTKALLAYAFALAGNQDKRKEVLKSLNEEAVKKDNSVHWERPQKPKAPVGHFYEPQAPSAEVEMTSYVLLAYLTAQPAPTSEDLTSATNIVKWITKQQNAQGGFSSTQDTVVALHALSKYGAATFTRTGKAAQVTIQSSGTFSSKFQVDNNNRLLLQQVSLPELPGEYSMKVTGEGCVYLQTSLKYNILPEKEEFPFALGVQTLPQTCDEPKAHTSFQISLSVSYTGSRSASNMAIVDVKMVSGFIPLKPTVKMLERSNHVSRTEVSSNHVLIYLDKVSNQTLSLFFTVLQDVPVRDLKPAIVKVYDYYETDEFAIAEYNAPCSKDLGNADYKDDDDKGASHHHHHH
B3: Variant A2M, bait region SEQ ID NO 98 (other)
chain: SVSGKPQYMVLVPSLLHTETTEKGCVLLSYLNETVTVSASLESVRGNRSLFTDLEAENDVLHCVAFAVPKSSSNEEVMFLTVQVKGPTQEFKKRTTVMVKNEDSLVFVQTDKSIYKPGQTVKFRVVSMDENFHPLNELIPLVYIQDPKGNRIAQWQSFQLEGGLKQFSFPLSSEPFQGSYKVVVQKKSGGRTEHPFTVEEFVLPKFEVQVTVPKIITILEEEMNVSVCGLYTYGKPVPGHVTVSICRKYSDASDCHGEDSQAFCEKFSGQLNSHGCFYQQVKTKVFQLKRKEYEMKLHTEAQIQEEGTVVELTGRQSSEITRTITKLSFVKVDSHFRQGIPFFGQVRLVDGKGVPIPNKVIFIRGNEANYYSNATTDEHGLVQFSINTTNVMGTSLTVRVNYKDRSPCYGYQWVSEEHEEAHHTAYLVFSPSKSFVHLEPMSHELPCGHTQTVQAHYILNGGTLLGLKKLSFYYLIMAKGGIVRTGTHGLLVKQEDMKGHFSISIPVKSDIAPVARLLIYAVLPTGDVIGDSAKYDVENCLANKVDLSFSPSQSLPASHAHLRVTAAPQSVCALRAVDQSVLLMKPDAELSASSVYNLLPEKDLTGFPGPLNDQDDEDCINRHNVYINGITYTPVSSTNEKDMYSFLEDMGLKAFTNSKIRKPKMCPQLEQYEMHGPEGLRVGGARGLEGFYESDVMGRGHARLVHVEEPHTKLRKYFPETWIWDLVVVNSAGVAEVGVTVPDTITEWKAGAFCLSEDAGLGISSTASLRAFQPFFVELTMPYSVIRGEAFTLKATVLNYLPKCIRVSVQLEASPAFLAVPVEKEQAPHCICANGRQTVSWAVTPKSLGNVNFTVSAEALESQELCGTEVPSVPEHGRKDTVIKPLLVEPEGLEKETTFNSLLCPSGGEVSEELSLKLPPNVVEESARASVSVLGDILGSAMQNTQNLLQMPYGCGEQNMVLFAPNIYVLDYLNETQQLTPEIKSKAIGYLNTGYQRQLNYKHYDGSYSTFGERYGRNQGNTWLTAFVLKTFAQARAYIFIDEAHITQALIWLSQRQKDNGCFRSSGSLLNNAIKGGVEDEVTLSAYITIALLEIPLTVTHPVVRNALFCLESAWKTAQEGDHGSHVYTKALLAYAFALAGNQDKRKEVLKSLNEEAVKKDNSVHWERPQKPKAPVGHFYEPQAPSAEVEMTSYVLLAYLTAQPAPTSEDLTSATNIVKWITKQQNAQGGFSSTQDTVVALHALSKYGAATFTRTGKAAQVTIQSSGTFSSKFQVDNNNRLLLQQVSLPELPGEYSMKVTGEGCVYLQTSLKYNILPEKEEFPFALGVQTLPQTCDEPKAHTSFQISLSVSYTGSRSASNMAIVDVKMVSGFIPLKPTVKMLERSNHVSRTEVSSNHVLIYLDKVSNQTLSLFFTVLQDVPVRDLKPAIVKVYDYYETDEFAIAEYNAPCSKDLGNADYKDDDDKGASHHHHHH

Molecular target: MMP13 (human, UniProt P45452 104-471, limits assumed)
Test: cell-based or functional assay

Which “Protease Inhibition (% of WT)” value does the source give for B1 here?
The value was 124 % of WT.

With B2 as the binder, how does the “Protease Inhibition (% of WT)” value read?
Its value is 64 % of WT.

How did the “Protease Inhibition (% of WT)” value turn out when B3 was run?
The value was 148 % of WT.

Molecular target: T1, ADAMTS5
Test: cell-based or functional assay

For B1, which “Protease Inhibition (% of WT)” value is on record?
Its value is 97 % of WT.

How did the “Protease Inhibition (% of WT)” value turn out when B2 was run?
Its value is 87 % of WT.

How did the “Protease Inhibition (% of WT)” value turn out when B3 was run?
Its value is 82 % of WT.

Molecular target: T2, ADAMTS4
Test: cell-based or functional assay

How did the “Protease Inhibition (% of WT)” value turn out when B1 was run?
The value was 168 % of WT.

For B2, which “Protease Inhibition (% of WT)” value is on record?
The value was 63 % of WT.

With B3 as the binder, how does the “Protease Inhibition (% of WT)” value read?
Its value is 124 % of WT.
